Assay results published in article PMC10723142, “Structures of the P. aeruginosa FleQ-FleN master regulators reveal large-scale conformational switching in motility and biofilm control” (Proceedings of the National Academy of Sciences of the …, 2023).

B1: full-length FleN^D48A (His6 tag cleaved) (natural protein)
chain: MKQMGSMHPVQVIAVTGGKGGVGKTNVSVNLALALADLGRRVMLLDAALGLANVDVLLGLTPKRTLADVIEGRCELRDVLLLGPGGVRIVPAASGTQSMVHLSPMQHAGLIQAFSDISDNLDVLVVDTAAGIGDSVVSFVRAAQEVLLVVCDEPTSITDAYALIKLLNRDHGMTRFRVLANMAHSPQEGRNLFAKLTKVTDRFLDVALQYVGVIPYDESVRKAVQKQRAVYEAFPRSKASLAFKAVAQKVDSWPLPANPRGHLEFFVERLVQHPATGSAV
notes: FleN, P. aeruginosa PAO1, full-length with D48A; pProEx-Htb-cloned, tag cleaved by HRV3c protease; source: E. coli BL21 Star (DE3), coexpressed with FleQ^REC-AAA+, purified as complex (IMAC, HRV3c cleavage, SEC); not shown: His6, N-terminal, cleaved
B2: FleQ receiver and ATPase domain tandem (FleQ^REC-AAA+) (domain or fragment)
chain: not shown
notes: FleQ, P. aeruginosa PAO1, residues 1-394 (REC and AAA+ domains); untagged, from pRSFDuet1*; also called FleQ^1-394; HTH-truncated FleQ; source: E. coli BL21 Star (DE3), coexpressed with His6-FleN variants; in lysate (IMAC co-purification) and purified as complex (IMAC, SEC) for cryo-EM
B3: His6-tagged full-length FleN^D48A (tag not cleaved) (natural protein)
chain: MKQMGSMHPVQVIAVTGGKGGVGKTNVSVNLALALADLGRRVMLLDAALGLANVDVLLGLTPKRTLADVIEGRCELRDVLLLGPGGVRIVPAASGTQSMVHLSPMQHAGLIQAFSDISDNLDVLVVDTAAGIGDSVVSFVRAAQEVLLVVCDEPTSITDAYALIKLLNRDHGMTRFRVLANMAHSPQEGRNLFAKLTKVTDRFLDVALQYVGVIPYDESVRKAVQKQRAVYEAFPRSKASLAFKAVAQKVDSWPLPANPRGHLEFFVERLVQHPATGSAV
notes: pProEx-Htb-cloned; source: E. coli BL21 Star (DE3), coexpressed with FleQ^FL, purified as complex (IMAC, SEC), without tag cleavage; not shown: His6, N-terminal, kept
B4: full-length untagged FleQ (FleQ^FL) (natural protein)
chain: not shown
notes: FleQ, P. aeruginosa PAO1 (amplified from genomic DNA), residues 1-490 covering the full-length protein; untagged, from pRSFDuet1*; also called FleQ^1-490; wild-type FleQ; source: E. coli BL21 Star (DE3), coexpressed with His6-FleN variants; in lysate (IMAC co-purification) and purified as complex (IMAC, SEC) for cryo-EM

Tests used:
[1] = biological target: B2; test: cryo-EM structure; c-di-GMP-bound complex, coexpressed and co-purified (IMAC, tag cleavage, SEC with 2 uM c-di-GMP); 200 uM AppCp and 4 uM c-di-GMP before grid preparation; conditions: both partners purified
[2] = biological target: the molecule itself; test: as above
[3] = biological target: B1; test: as above; conditions: both partners purified
[4] = biological target: B4; test: cryo-EM structure; c-di-GMP-free complex, coexpressed and co-purified (IMAC, SEC), with AppCp (100 uM); 20 mM HEPES pH 8.0, 250 mM NaCl, 2 mM MgCl2, 2% glycerol; C2 symmetry; conditions: both partners purified
[5] = biological target: the molecule itself; test: as above
[6] = biological target: B3; test: as above; conditions: both partners purified

B1
binding result [1]: binds
binding result [2]: binds

B2
stoichiometry N [3]: 1.5 FleQ per FleN (3:2)
binding result [2]: binds

B3
binding result [4]: binds
binding result [5]: binds

B4
stoichiometry N [6]: 2 FleQ per FleN (4:2)
binding result [5]: binds
